Measurements from patent publication US20200062856A1 (XDCEXPLORER SHANGHAI, published 2020).
Positions count from the first letter of the chain named.

B1: Humanized antibody 12B12-6 (antibody, V domains shown)
VH: EVQLVESGGGLVQPGGSLRLSCAASGFTFSNFGMHWVRQAPGKGLEWVAYISSGSTSFYYADTVKGRFTISRDNAKNSLYLQMNSLRDEDTAVYYCSRTNSLLRGFFDAWGQGTTVTVSS
VL: DIVLTQSPDSLAVSLGERATINCRASQSVSSSSYTYLHWYQQKPGQPPKLLIKSASNLESGVPDRFSGSGSGTDFTLTISSLQAEDVAVYYCQHSWEIPLTFGQGTKLEIK
notes: also called h12B12-6
B2: Humanized antibody 12B12-1 (antibody, V domains shown)
VH: B1 VH with A49S
VL: B1 VL with L4M, K53Y
notes: also called h12B12-1
B3: Humanized antibody 12B12-2 (antibody, V domains shown)
VH: B1 VH
VL: B1 VL with L4M, K53Y
notes: also called h12B12-2
B4: Humanized antibody 12B12-3 (antibody, V domains shown)
VH: B1 VH with L11V, G16R, A75S, S78T, D88A
VL: B1 VL with L4M, K53Y
notes: also called h12B12-3
B5: Humanized antibody 12B12-7 (antibody, V domains shown)
VH: B1 VH with L11V, G16R, A75S, S78T, D88A, S97A
VL: B1 VL
notes: also called h12B12-7
B6: Humanized antibody 12B12-8 (antibody, V domains shown)
VH: B1 VH with L11V, G16R, A75S, S78T, D88A
VL: B1 VL
notes: also called h12B12-8
B7: Humanized antibody 12B12-14 (antibody, V domains shown)
VH: B1 VH
VL: DIVLTQTPLSLSVTPGQPASISCRASQSVSSSSYTYLHWYLQKPGQPPQLLIKSASNLESGVPDRFSGSGSGTDFTLKISRVEAEDVGVYYCQHSWEIPLTFGQGTKLEIK
notes: also called h12B12-14
B8: Humanized antibody 12B12-9 (antibody, V domains shown)
VH: B1 VH with A49S
VL: B7 VL with L4M, K53Y
notes: also called h12B12-9
B9: Humanized antibody 12B12-10 (antibody, V domains shown)
VH: B1 VH
VL: B7 VL with L4M, K53Y
notes: also called h12B12-10
B10: Humanized antibody 12B12-11 (antibody, V domains shown)
VH: B1 VH with L11V, G16R, A75S, S78T, D88A
VL: B7 VL with L4M, K53Y
notes: also called h12B12-11
B11: Humanized antibody 12B12-13 (antibody, V domains shown)
VH: B1 VH with A49S
VL: B7 VL
notes: also called h12B12-13
B12: Humanized antibody 28D4-6 (antibody, V domains shown)
VH: EVQLVESGGGLVKPGGSLRLSCAASGFTFSNYVMSWIRQAPGKGLEWVSEISTGGSHTYYSDTVTGRFTISRDNAKNSLYLQMNSLRAEDTAVYYCIMFYYGSSYSMDYWGQGTTVTVSS
VL: DIQMTQSPSSLSASVGDRVTITCRASQDIRNYLNWYQQKPGKAPKLLIYHTSRLHSGVPSRFSGSGSGTDYTFTISSLQPEDIATYYCQQGDTLPLTFGQGTRLEIK
notes: also called h28D4-6
B13: Humanized antibody 28D4-1 (antibody, V domains shown)
VH: B12 VH with I97A, M98R
VL: B12 VL with Y71F
notes: also called h28D4-1
B14: Humanized antibody 28D4-2 (antibody, V domains shown)
VH: B12 VH
VL: B12 VL with Y71F
notes: also called h28D4-2
B15: Humanized antibody 28D4-5 (antibody, V domains shown)
VH: B12 VH with I97A, M98R
VL: B12 VL
notes: also called h28D4-5
B16: Humanized antibody 28D4-9 (antibody, V domains shown)
VH: B12 VH with I97A, M98R
VL: B12 VL with A43T, P44V, Y87F
notes: also called h28D4-9
B17: Humanized antibody 28D4-10 (antibody, V domains shown)
VH: B12 VH
VL: B12 VL with A43T, P44V, Y87F
notes: also called h28D4-10

Target: T1, human TPBG-hFc protein (human, UniProt Q13641 32-355)
T1 construct: range 32-355; Expressed in HEK293 cells, purified on protein A; also called immunogen A; hFc tagged TPBG protein; not shown: human IgG Fc fragment of the pCpC vector
T1 sequence (looked up): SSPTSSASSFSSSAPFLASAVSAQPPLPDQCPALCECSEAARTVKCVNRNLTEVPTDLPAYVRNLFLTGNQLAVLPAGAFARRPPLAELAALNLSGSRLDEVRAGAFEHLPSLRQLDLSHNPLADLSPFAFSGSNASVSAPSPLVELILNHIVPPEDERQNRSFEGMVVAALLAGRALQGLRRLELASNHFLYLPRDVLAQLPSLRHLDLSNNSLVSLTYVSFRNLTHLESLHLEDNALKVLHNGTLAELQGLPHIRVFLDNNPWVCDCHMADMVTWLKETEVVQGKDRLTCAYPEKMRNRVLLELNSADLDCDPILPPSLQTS
Assay: ELISA, coated human TPBG-hFc
Method: The purified human TPBG-hFc obtained from step (1) diluting with PBS to a final concentration of 1.0 μg/mL was aliquoted into a 96-well ELISA plate at 100 μL per well, and sealed with a parafilm and incubated at 4° C. overnight. The plate was washed twice with plate washing buffer (PBS containing 0.01% (v/v) Tween 20), and blocked with blocking buffer (PBS containing 0.01% (v/v) Tween 20 and 1% (w/w) BSA) at room temperature for 2 h. The blocking buffer was discarded, and […] per well of the purified antibody TPBG was added. After incubating at 37° C. for 2 h, the plate was washed for three times with plate washing buffer (PBS containing 0.01% (v/v) Tween 20). HRP (horseradish peroxidase)-labeled secondary antibody (purchased from Sigma) was added and incubated at 37° C. for 2 h, and the plate was washed for three times using plate washing buffer (PBS containing 0.01% (v/v) Tween 20). 100 μL of TMB substrate was aliquoted into each well, incubated at room temperature for 30 min, and 100 μL of stop buffer (1.0 N HCl) per well was subsequently added. A_{450 nm} values were read using the ELISA plate reader (SpectraMax 384plus purchased from Molecular Device), and the results were shown in Table 5. […] In Table 5 the IgG control herein is a mice IgG control, the data in the Table are OD_{450 nm} values, and Blank represents the OD_{450 nm} value of PBS buffer in the plate.
The purified humanized TPBG antibody obtained from Embodiment 1 was reacted with human TPBG-hFc, for the method, see (5) Identification of lead antibody in Embodiment 1. The EC50 in Table 11 and Table 12 are calculated according to the OD450 nm value of the h12B12 variants and the h28D4 variants, respectively. […] FIGS. 7A and 7B are the binding reactions of purified humanized h12B12 variants to human TBPG-hFc protein, and FIGS. 8A and 8B are the binding reactions of the purified humanized h28D4 variants to human TBPG-hFc protein.

EC50 [nM] | Binder
0.362 | B1
0.248 | B2
0.274 | B3
0.333 | B4
0.367 | B5
0.287 | B6
0.257 | B7
0.223 | B8
0.25 | B9
0.239 | B10
0.289 | B11
0.205 | B12
0.364 | B13
0.181 | B14
0.782 | B15
0.218 | B16
0.224 | B17
